Results published in patent publication US20220177587A1, “METHODS AND USES OF VARIANT CD80 FUSION PROTEINS AND RELATED CONSTRUCTS” (Alpine Immune Sciences, Inc., priority 2018, published 2022).
Read-outs that look alike come from different tables or passages of the source. Blank lines part the entries; values can stand above or below the binder they belong to.

Assays:
[1] = molecular target: CD28 (human) (UniProt P10747)
[2] = molecular target: human PD-L1 (human) (UniProt Q9NZQ7)
Target sequence in this assay (Q9NZQ7 19-290): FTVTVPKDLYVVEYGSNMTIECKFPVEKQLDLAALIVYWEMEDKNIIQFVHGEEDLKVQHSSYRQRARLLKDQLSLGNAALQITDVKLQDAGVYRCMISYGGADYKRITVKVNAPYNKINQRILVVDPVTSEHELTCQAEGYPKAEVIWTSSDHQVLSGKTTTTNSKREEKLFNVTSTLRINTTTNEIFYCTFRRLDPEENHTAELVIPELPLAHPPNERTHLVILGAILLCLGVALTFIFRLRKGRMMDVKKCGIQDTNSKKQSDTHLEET

[3] = molecular target: CD28 (human) (UniProt P10747); experiment: flow cytometry, Jurkat cells (CD28)
[4] = molecular target: human CTLA-4 (human) (UniProt P16410); experiment: flow cytometry, CHO cells stably expressing CTLA4
Sequence of human CTLA-4 (human) (P16410 36-223): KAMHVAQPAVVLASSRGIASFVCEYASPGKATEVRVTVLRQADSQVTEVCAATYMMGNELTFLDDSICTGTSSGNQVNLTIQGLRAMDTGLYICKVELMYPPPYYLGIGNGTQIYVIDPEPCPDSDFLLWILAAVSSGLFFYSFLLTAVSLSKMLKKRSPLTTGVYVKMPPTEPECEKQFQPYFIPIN

[5] = molecular target: human PD-L1 (human) (UniProt Q9NZQ7); experiment: flow cytometry, CHO cells stably expressing PD-L1
Target sequence in this assay (Q9NZQ7 19-290): as the sequence (Q9NZQ7 19-290) above

[6] = molecular target: human PD-L1 (human) (UniProt Q9NZQ7); experiment: flow cytometry, MFI on CHO/PD-L1 over MFI on Jurkat (CD28)
Target sequence in this assay (Q9NZQ7 19-290): as above

[7] = molecular target: CD28 (human) (UniProt P10747); remark: listed apart in the source
[8] = molecular target: human PD-L1 (human) (UniProt Q9NZQ7); remark: listed apart in the source
Target sequence in this assay (Q9NZQ7 19-290): as above

[9] = molecular target: CD28 (human) (UniProt P10747); remark: listed apart in the source
[10] = molecular target: human PD-L1 (human) (UniProt Q9NZQ7); experiment: flow cytometry, HEK293 cells transfected with human PD-L1
Target sequence in this assay (Q9NZQ7 19-290): as above

[11] = molecular target: CD28 (human) (UniProt P10747); remark: listed apart in the source
[12] = molecular target: human PD-L1 (human) (UniProt Q9NZQ7); remark: listed apart in the source
Target sequence in this assay (Q9NZQ7 19-290): as above

[13] = molecular target: human CTLA-4 (human) (UniProt P16410); experiment: flow cytometry, CHO/CTLA4 cells; MFI over CD80 WT IgV-Fc
[14] = molecular target: human PD-L1 (human) (UniProt Q9NZQ7); experiment: flow cytometry, CHO/PD-L1 cells; MFI over CD80 WT IgV-Fc
[15] = molecular target: CD28 (human) (UniProt P10747); experiment: flow cytometry, Jurkat cells (CD28); MFI over CD80 WT IgV-Fc
[16] = molecular target: CD28 (human) (UniProt P10747); remark: listed apart in the source
[17] = molecular target: human PD-L1 (human) (UniProt Q9NZQ7); remark: listed apart in the source
Target sequence in this assay (Q9NZQ7 19-290 limits assumed): as the sequence (Q9NZQ7 19-290) above

[18] = molecular target: human PD-L1 (human) (UniProt Q9NZQ7); experiment: flow cytometry, MFI on PD-L1 cells over MFI on CD28 cells
[19] = molecular target: human PD-L1 (human) (UniProt Q9NZQ7); experiment: flow cytometry, HEK293 cells transfected with full-length human PD-L1, PE anti-human Fc

B1: CD80 IgV-Fc E35D/M47L/V68M/A71G/L85Q/D90G (Fc fusion)
chain: VIHVTKEVKEVATLSCGHNVSVEELAQTRIYWQKDKKMVLTMMSGDLNIWPEYKNRTIFDITNNLSIMILGLRPSDEGTYECVVQKYEKGAFKREHLAEVTLSVKAD
- RLU at 5.0 nM: Fold Increase over WT CD80-IgV-Fc [1]: 2.3 fold
- RLU at 5.0 nM: Fold Increase over WT CD80-IgV-Fc [2]: 2.3 fold
- Fold change to WT [3]: 33.9 fold
- MFI at 33.3 nM [3]: 1400 MFI
- Fold change to WT CD80 [4]: 10.1 fold
- MFI at 33.3 nM [4]: 10300 MFI
- Fold change to WT [5]: 202 fold
- MFI at 33.3 nM [5]: 16800 MFI
- Ratio of PDL1:CD28 [6]: 12

B2: CD80 IgV-Fc T13R/Q33R/E35D/M38I/M47L/V68M/E95V/L97Q (Fc fusion)
chain: VIHVTKEVKEVARLSCGHNVSVEELAQTRIYWRKDKKIVLTMMSGDLNIWPEYKNRTIFDITNNLSIMILALRPSDEGTYECVVLKYEKDAFKRVHQAEVTLSVKAD
- RLU at 5.0 nM: Fold Increase over WT CD80-IgV-Fc [7]: 2.5 fold
- RLU at 5.0 nM: Fold Increase over WT CD80-IgV-Fc [8]: 2.5 fold

B5: variant CD80 IgV-Fc (inert) H18L/A26N/D46E/V68M/A71G/D90G (Fc fusion)
chain: VIHVTKEVKEVATLSCGLNVSVEELNQTRIYWQKEKKMVLTMMSGEMNIWPEYKNRTIFDITNNLSIMILGLRPSDEGTYECVVLKYEKGAFKREHLAEVTLSVKAD
- IL2-luciferase reporter, fold increase in RLU over WT CD80-IgV-Fc at 5.0 nM [11]: 4.8 fold
- IL2-luciferase reporter, fold increase in RLU over WT CD80-IgV-Fc at 5.0 nM [12]: 4.8 fold
- MFI at 33.3 nM [3]: 7250 MFI
- MFI at 33.3 nM [4]: 17000 MFI
- MFI at 33.3 nM [5]: 68000 MFI
- Fold change to WT CD80 [13]: 12.3 fold
- Fold change to WT CD80 [14]: 412 fold
- Fold change to WT CD80 [15]: 71.1 fold

B7: CD80 IgV-Fc E35D/M47V/N48K/V68M/A71G/L85M (Fc fusion)
chain: VIHVTKEVKEVATLSCGHNVSVEELAQTRIYWQKDKKMVLTMMSGDVKIWPEYKNRTIFDITNNLSIMILGLRPSDEGTYECVVMKYEKDAFKREHLAEVTLSVKAD
- RLU at 5.0 nM: Fold Increase over WT CD80-IgV-Fc [7]: 3.6 fold
- RLU at 5.0 nM: Fold Increase over WT CD80-IgV-Fc [8]: 3.6 fold

Second part, the binder after the results:

- Fold increase in IL2 reporter signal (Jurkat/IL2 reporter assay) (fold vs WT CD80 IgV-Fc) [9]: 0.07
B3: variant CD80 IgV-Fc E35D/T57I/L70Q/A71D (Fc fusion)
chain: VIHVTKEVKEVATLSCGHNVSVEELAQTRIYWQKDKKMVLTMMSGDMNIWPEYKNRIIFDITNNLSIVIQDLRPSDEGTYECVVLKYEKDAFKREHLAEVTLSVKAD

- MFI at 22.2 nM [10]: 5160
B4: variant CD80 IgV-Fc I30T/L70R (Fc fusion)
chain: VIHVTKEVKEVATLSCGHNVSVEELAQTRTYWQKEKKMVLTMMSGDMNIWPEYKNRTIFDITNNLSIVIRALRPSDEGTYECVVLKYEKDAFKREHLAEVTLSVKAD

- IL-2 luciferase reporter, fold increase over WT CD80-IgV-Fc at 5.0 nM [16]: 3.81 fold
- IL-2 luciferase reporter, fold increase over WT CD80-IgV-Fc at 5.0 nM [17]: 3.81 fold
- Fold change to WT CD80 [3]: 29.8 fold
- MFI at 33.3 nM [3]: 1310 MFI
- Fold change to WT CD80 [4]: 19 fold
- MFI at 33.3 nM [4]: 25900 MFI
- Fold change to WT CD80 [5]: 196 fold
- MFI at 33.3 nM [5]: 8520 MFI
- Ratio of PDL1:CD28 [18]: 6.5
B6: variant CD80 IgV-Fc H18Y/E35D/A71G/D90G (Fc fusion)
chain: VIHVTKEVKEVATLSCGYNVSVEELAQTRIYWQKDKKMVLTMMSGDMNIWPEYKNRTIFDITNNLSIVILGLRPSDEGTYECVVLKYEKGAFKREHLAEVTLSVKAD

- IL-2 luciferase reporter, fold increase over WT CD80-IgV-Fc at 5.0 nM [16]: 1.82 fold
- IL-2 luciferase reporter, fold increase over WT CD80-IgV-Fc at 5.0 nM [17]: 1.82 fold
- Fold change to WT CD80 [3]: 77.8 fold
- MFI at 33.3 nM [3]: 3410 MFI
- Fold change to WT CD80 [4]: 20.3 fold
- MFI at 33.3 nM [4]: 27600 MFI
- Fold change to WT CD80 [5]: 539 fold
- MFI at 33.3 nM [5]: 23500 MFI
- Ratio of PDL1:CD28 [18]: 6.9
B8: variant CD80 IgV-Fc E35D/M47L/V68M/D90G (Fc fusion)
chain: VIHVTKEVKEVATLSCGHNVSVEELAQTRIYWQKDKKMVLTMMSGDLNIWPEYKNRTIFDITNNLSIMILALRPSDEGTYECVVLKYEKGAFKREHLAEVTLSVKAD

- MFI at 22.2 nM [19]: 1580 MFI
B9: variant CD80 IgV-Fc E35G/K54E/A71D/L72P (Fc fusion)
chain: VIHVTKEVKEVATLSCGHNVSVEELAQTRIYWQKGKKMVLTMMSGDMNIWPEYENRTIFDITNNLSIVILDPRPSDEGTYECVVLKYEKDAFKREHLAEVTLSVKAD
